Measured values taken from PMC11687307, “The calcium-binding protein S100A1 binds to titin’s N2A insertion sequence in a pH-dependent manner” (The Journal of General Physiology, 2024).

B1: S100A1 (mouse) (natural protein)
chain: MGSELESAMETLINVFHAHSGQEGDKYKLSKKELKDLLQTELSGFLDVQKDADAVDKVMKELDENGDGEVDFKEYVVLVAALTVACNNFFWETS
notes: S100A1, mouse; No tag is named; source: E. coli BL21(DE3), purified (Capto-Q anion exchange, phenyl Sepharose)
B2: UN2A, unique insertion sequence of the N2A region of titin (mouse, amino acids 8539-8655) (domain or fragment)
chain: DERKKQEKIEGDLRAMLKKTPALKKGSGEEEEIDIMELLKNVDPKEYEKYARMYGITDFRGLLQAFELLKQSQEEETHRLEIEELEKSERDEKEFEELVAFIQQRLTQTEPVTLIKD
notes: titin, mouse, UN2A region between Ig domains I80 and I81, amino acids 8539-8655; Gene synthesised by GeneArt; No tag is named; source: E. coli BL21(DE3) pLysS, purified (Capto-Q anion exchange, SEC)

Assays:
Conditions in all cases: both partners purified
[1] = target: B2; experiment: SPR; UN2A immobilised on carboxyl sensor (OpenSPR), S100A1 injected; 25°C; pCa 3, pH 6.5; 1:1 model
[2] = target: B2; experiment: SPR; UN2A immobilised on carboxyl sensor (OpenSPR), S100A1 injected at 5 to 100 µM; 25°C; 250 mM NaCl, 20 mM HEPES, 0.05% Tween; pCa 5, pH 7.4; 1:1 model
[3] = target: B2; experiment: SPR; UN2A immobilised on carboxyl sensor (OpenSPR), S100A1 injected at 5 to 100 µM; 25°C; 250 mM NaCl, 20 mM HEPES, 0.05% Tween; pCa 3, pH 7.4; 1:1 model
[4] = target: B2; experiment: SPR; UN2A immobilised on carboxyl sensor (OpenSPR), S100A1 injected at 5 to 100 µM; 25°C; 250 mM NaCl, 20 mM HEPES, 0.05% Tween; pCa 3, pH 6.0; 1:1 model
[5] = target: B2; experiment: SPR; UN2A immobilised on carboxyl sensor (OpenSPR), S100A1 injected at 5 to 100 µM; 25°C; 250 mM NaCl, 20 mM HEPES, 0.05% Tween; pCa 5, pH 6.0; 1:1 model
S100A1 (mouse) = target: B1; experiment: co-IP; purified proteins, 500 µg each, with anti-S100A1 antibody overnight at 4°C, captured on magnetic beads; 250 mM NaCl, 20 mM HEPES, 1 mM Ca^2+, pH 6; SDS-PAGE, silver staining, densitometry

Row | Binder | Kd [1] [µM] | Kd [2] [µM] | Kd [3] [µM] | Kd [4] [µM] | Kd [5] [µM] | band intensity of UN2A relative to the S100A1 band (densitometry) (S100A1 (mouse)) [%] | binding ratio of UN2A to S100A1 in the complex (densitometry) (S100A1 (mouse)) [UN2A per S100A1]
1 | B1 | 9.95 | 285 | 21.6 | 5 | 174 | – | –
2 | B2 | – | – | – | – | – | 25 | ~0.25
